Experimental data from US20240376149A1, “Novel Modulators of GABABR1a” (VIB VZW, priority 2021, published 2024).
Where two headings read alike, the source gives them in different places. *1 amine or outer side, *2 acyl side, *3 side chain or, on linkers, in order; H or OH if unused. Where a SMILES comes first, the peptide text is derived from it. Where no end group is shown, it is not given here. [ ]: non-standard residue; d: D form. X2 = O=C([C@H](CC1CCC(F)(F)CC1)N[*:1])[*:2]; 2Nal = N[C@@H](Cc1ccc2ccccc2c1)C(=O)O; hCha = N[C@@H](CCC1CCCCC1)C(=O)O; Cha = N[C@@H](CC1CCCCC1)C(=O)O; F72 = not defined here

Legend:
[1] = target: T1, sushi domain 1 (SD1) of GABABR1a (Homo sapiens, UniProt Q9UBS5); experiment: Isothermal titration calorimetry (ITC) direct binding assay
T1 construct: The synthetic gene encoding for residues 26-96 of the Sushi1 protein was cloned into a pFloat-SUMO vector; His-SUMO (with 3C protease site) (N, cleaved yes); made in house; host or cells: E. coli BL21(DE3)
Description: In contrast to the FP assay, the isothermal titration calorimetry (ITC) assay is a direct binding assay.
For biophysical and structural biology purposes the Sushi1 protein was expressed in a bacterial expression system. The synthetic gene encoding for residues 26-96 of the Sushi1 protein was cloned into a pFloat-SUMO vector, generating a His-tagged SUMO-Sushi1 fusion protein. The construct also contained a 3C protease cleavage site to remove the His-SUMO-tag. The pFloat-SUMO-Sushi1 plasmid was transformed in BL21(DE3) cells and plated on kanamycin ([…]) containing LB agar plates. A small LB culture, supplemented with […] kanamycin, was inoculated with a single colony of BL21(DE3)(pFloat-SUMO-Sushi1) and grown overnight at 37° C. 1 liter LB cultures were subsequently inoculated with 20 ml of this preculture and grown at 37° C. until OD600 reached 0.8. At this point protein expression was induced using 0.5 mM isopropyl β-D-1-thiogalactopyranoside (IPTG). Cells were incubated further overnight at 20° C. and subsequently harvested by centrifugation (Beckman rotor 8.1000, 5000 rpm, 15 min, 4C). The pellet was resuspended in 20 mM Tris pH 7.5, 500 mM NaCl, 10 mM imidazole, 5 mM β-mercaptoethanol, 0.1 mg/mL 4-(2-aminoethyl) benzenesulfonyl fluoride hydrochloride (AEBSF), 1 μg/mL leupeptine, 50 μg/mL DNasel and 20 mM MgCl2. The cells were lysed using a French press (Constant Systems) at 20 kpsi and the cell debris was removed by centrifugation. The cell lysate was loaded on a Ni-sepharose FF HiLoad column (GE Healthcare), equilibrated in 20 mM Tris pH 7.5, 500 mM NaCl, 10 mM imidazole, 5 mM […]. The bound proteins were eluted using a linear gradient to 500 mM imidazole. Fractions containing the His-SUMO-Sushi1 protein were pooled and dialysed overnight to 20 mM Tris pH 7.5, 150 mM NaCl, while cleaving with 3C protease. The cleaved sample was loaded again on a Ni-sepharose FF HiLoad column, equilibrated in the same buffer. The FT, containing the Sushi1 protein, was concentrated and applied to a BioRad S100 16/60 size exclusion column, equilibrated in 50 mM KPi buffer pH 6.0, 50 mM NaCl.
(§1) The Sushi-1 protein was dialysed overnight to PBS buffer and diluted to 30 μM in the same buffer. The peptides were resuspended in PBS at a stock concentration of 3 mM and diluted further in the same buffer to 300 μM. ITC experiments were performed on a Microcal ITC200 device. Titrations comprised 26×1.5 μL injections of peptide into protein, with 90 s intervals. An initial injection of ligand (0.5 μL) was made and discarded during data analysis. The data were fitted to a single binding site model using the Microcal LLC ITC200. Original software provided by the manufacturer.

[2] = target: T2, GABABR1a-SD1 (SD1-FITC-9mer complex) (Homo sapiens, UniProt Q9UBS5); experiment: Fluorescence polarization (FP) competition assay with FITC-9mer; format: binding; details: peptide at 50 μM; inhibition of FITC-9mer binding to SD1
T2 construct: The synthetic gene encoding for residues 26-96 of the Sushi1 protein was cloned into a pFloat-SUMO vector; His-SUMO (with 3C protease site) (N, cleaved yes); made in house; host or cells: E. coli BL21(DE3)
Protocol: Intrigued by the surprising results of the 5-mer, it was decided to set up a medium- to high-throughput screen to optimize the 5-mer sequence. Several assays were tested to find a reproducible, robust and cost-effective assay that is also suitable for high-throughput screening. A fluorescence polarization (FP) assay was selected. FP measurements are well-known for receptor binding assays. The assay is based on the rotational movement of fluorescently labelled molecules in solution. […] The FP assay was optimized using the FITC labelled sAPP 9-mer (FIG. 1).
To screen for GABABR1a binders using unlabelled test compounds, the assay was turned into a competition assay using FITC-9mer. […] To validate this inhibitor assay, the IC50 values were determined of the 17-mer, 9-mer, 5-mer as well as those from 3 negative controls: 10-mer, scrambled 17-mer and a scrambled 9-mer (FIG. 2).
(§2) To determine if the peptides of this application were able to disrupt the SD1-9-mer complex, each peptide (in single point or dose-response curve) tested was incubate with SD1 protein for 1 h at RT. After this initially incubation, FITC-9mer was added to the previous mix and incubated during 2 h at RT. The signal intensity was measure in an appropriate plate reader using the following settings: Number of flashes per well: 200; Excitation: F482-16; Dichroic filter: FLP 504; Emission A F530-40; Gain A: 738, Gain B: 736. The assay was conducted in a 384-well plate.

[3] = target: T3, HEK293 cells expressing the ectodomain of GABABR1a comprising SD1 (Homo sapiens, UniProt Q9UBS5); experiment: Flow-cytometry cell-based binding assay, competition with biotinylated 9-mer; details: peptide at 100 μM, inhibition of biotin-9mer (10 μM) binding
T3 construct: HEK293 were transfected with plasmids encoding the ectodomain of GABABR1a (as in Rice et al., 2019); expressed in transfected cells; host or cells: HEK293
Protocol: HEK cells expressing GABABR1a-SD1 were incubated with peptides of the application and the binding of 9-mer in the presence of the peptides was measured. The 9-mer peptide is biotinylated and detected with a commercial antibody.
Next, the top ranking compounds were tested in a cell-based binding assay. HEK293 cells were transformed to express the ectodomain of GABABR1a comprising SD1. In this cell-based assay, SD1 is expressed on the GABABR1a ectodomain and can adopt a more physiological conformation, compared to the purified SD1 protein used in the primary assay (FP assay).
HEK293 were transfected with plasmids encoding the ectodomain of GABABR1a (as in Rice et al., 2019), carrying a His-tag at the N-terminal. After 24 h of expression, cells were harvested and adjusted to a concentration of 1×10^6 cells/mL in ice-cold 2% FBS/PBS. Incubation with each peptide (in dose-response curve) was carried out at 4° C. for 1 h, followed by incubation with the biotion-9mer (10 μM) peptide during 30 min. Detection antibodies recognizing either His protein or biotin were added for a period of 30 min. The assay plate containing the cells was loaded into the Attune NxT Cytometer, parameters were adjusted accordingly with the cell type and signal intensity. In each experiment, positive and negative control were added to the plate.

[4] = target: T4, Sushi domain 1 of the human GABA B1a receptor (human, UniProt Q9UBS5 26-96); experiment: ITC, peptide titrated into purified SD1
T4 construct: Purified recombinant protein from E. coli; also called SD1; GABABR1a-SD1
Protocol: First, we wondered whether the wild-type sAPP 9-mer peptide would be the optimal sequence in terms of SD1 binding or whether sequence variants of the sAPP 9-mer would have improved binding to the GABABR1a-SD1. Therefore a panel of single and double sAPP 9-mer mutants was generated. An alanine scan was performed for the residues on position 1 to position 7. Based on an ITC assay, these single mutant peptides bound the SD1 with the same or slightly higher Kd (Table 1). Also the double mutants VIB_P04, VIB_P05 and VIB_P19 bound with a similar Kd to SD1 compared to the wild-type 9-mer. We have also tested the effect of the D-isomer of the amino residues on position 1 to 4, in single or multiple combinations. None of the mutations had strong effects on the measured Kd (Table 1). We therefore conclude that the wild-type sAPP 9-mer is already optimized but that many variants bind as good to SD1 and thus will modulate GABABR1a in a similar manner.
as §1, with “ITC₂₀₀.” for “ITC200.”

[5] = target: T4, Sushi domain 1 of the human GABA B1a …; experiment: ITC, peptide titrated into purified SD1; remark: listed apart in the source
Protocol: as §1, with “ITC₂₀₀.” for “ITC200.”

[6] = target: T4, Sushi domain 1 of the human GABA B1a …; experiment: FP competition vs FITC-9mer on purified SD1
Protocol: Next, 35 variants of the DVWWG 5-mer peptide containing natural residues were tested in the above described FP assay. The peptides were tested at a concentration of 50 μM.
as §2

T4 sequence (Q9UBS5 26-96 limits assumed): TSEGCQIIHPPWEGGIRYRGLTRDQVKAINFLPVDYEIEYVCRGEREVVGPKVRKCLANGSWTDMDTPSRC
T2 sequence (Q9UBS5 26-96, one chain of several): as the sequence (Q9UBS5 26-96 limits assumed) above
T3 sequence (Q9UBS5 20-591 limits assumed): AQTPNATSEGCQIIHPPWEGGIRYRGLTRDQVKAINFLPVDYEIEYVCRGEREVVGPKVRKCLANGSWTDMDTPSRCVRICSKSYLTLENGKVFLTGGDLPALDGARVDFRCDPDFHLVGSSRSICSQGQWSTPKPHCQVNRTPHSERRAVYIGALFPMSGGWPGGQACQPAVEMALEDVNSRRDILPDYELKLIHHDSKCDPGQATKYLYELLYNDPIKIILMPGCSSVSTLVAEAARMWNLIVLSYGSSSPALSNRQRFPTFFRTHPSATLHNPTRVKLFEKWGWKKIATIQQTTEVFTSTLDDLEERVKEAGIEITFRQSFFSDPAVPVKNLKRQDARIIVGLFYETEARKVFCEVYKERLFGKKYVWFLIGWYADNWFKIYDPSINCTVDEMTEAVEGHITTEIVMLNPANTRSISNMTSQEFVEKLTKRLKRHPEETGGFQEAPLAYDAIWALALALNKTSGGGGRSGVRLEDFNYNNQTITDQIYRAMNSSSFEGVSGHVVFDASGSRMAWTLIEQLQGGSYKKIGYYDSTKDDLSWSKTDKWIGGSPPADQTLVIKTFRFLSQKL

In the case of “VIB-0068911: non-natural 5-mer d-I-F72-W-S; d = D-aspartate, F72 = (isoethylmethyl)benzene ([dD]I[F72]WS; not fully specified; printed as d-I-F72-W-S; reading uncertain)”, the “ITC Kd” value ([1]; peptide titrated into Sushi-1 protein in PBS) is reported as “bound as good as the 17-mer”.

CC[C@H](C)[C@H](NC(=O)[C@H](N)CC(=O)O)C(=O)N[C@@H](CCc1ccccc1)C(=O)N[C@@H](Cc1c[nH]c2ccccc12)C(=O)N[C@@H](CO)C(=O)O [VIB-0068910] gave an inhibition at 50 µM [2] of 88.6% and an inhibition at 100 µM [3] of 54.2%.

CC[C@H](C)[C@H](NC(=O)[C@H](N)CC(=O)O)C(=O)N[C@@H](CC1CCC(F)(F)CC1)C(=O)N[C@@H](Cc1c[nH]c2ccccc12)C(=O)N[C@@H](CO)C(=O)O [VIB-0068907] (H-[dD]I[X2]WS-OH; N-terminus and C-terminus assumed) was tested, and the inhibition at 50 µM [2] was 86.2% and the inhibition at 100 µM [3] was 47.2%.

Molecule CC[C@H](C)[C@H](NC(=O)[C@H](N)CC(=O)O)C(=O)N[C@@H](Cc1ccc2ccccc2c1)C(=O)N[C@@H](Cc1c[nH]c2ccccc12)C(=O)N[C@@H](CO)C(=O)O [VIB-0068895] (H-[dD]I[2Nal]WS-OH; N-terminus and C-terminus assumed) has an inhibition at 50 µM [2] of 96.3% and an inhibition at 100 µM [3] of 77%.

DDSDVWWG [VIB_P20, DDSDVWWG] was tested, and the Kd [1] was 1.95 µM.

In the case of CC(C)[C@H](NC(=O)[C@H](CC(=O)O)NC(=O)[C@@H](CO)NC(=O)[C@@H](CC(=O)O)NC(=O)[C@H](N)CC(=O)O)C(=O)N[C@@H](Cc1c[nH]c2ccccc12)C(=O)N[C@@H](Cc1c[nH]c2ccccc12)C(=O)NCC(=O)NCC(=O)O [VIB_P07, {D-ASP}{D-ASP}{D-SER}DVWWGG] (H-[dD][dD][dS]DVWWGG-OH; N-terminus and C-terminus assumed), the Kd [1] is reported as 11 µM.

With CC[C@H](C)[C@H](NC(=O)[C@H](N)CC(=O)O)C(=O)N[C@@H](CCC1CCCCC1)C(=O)N[C@@H](Cc1c[nH]c2ccccc12)C(=O)N[C@@H](CO)C(=O)O [VIB-0068903] (H-[dD]I[hCha]WS-OH; N-terminus and C-terminus assumed) the inhibition at 50 µM [2] was 93.9% and the inhibition at 100 µM [3] was 76%.

Molecule CC[C@H](C)[C@H](NC(=O)[C@H](N)CC(=O)O)C(=O)N[C@@H](CC1CCCCC1)C(=O)N[C@@H](Cc1c[nH]c2ccccc12)C(=O)N[C@@H](CO)C(=O)O [VIB-0068905] (H-[dD]I[Cha]WS-OH; N-terminus and C-terminus assumed) has an inhibition at 50 µM [2] of 94.8% and an inhibition at 100 µM [3] of 68.3%.

Work on CC(C)[C@H](NC(=O)[C@H](CC(=O)O)NC(=O)[C@H](CO)NC(=O)[C@@H](CC(=O)O)NC(=O)[C@@H](N)CC(=O)O)C(=O)N[C@@H](Cc1c[nH]c2ccccc12)C(=O)N[C@@H](Cc1c[nH]c2ccccc12)C(=O)NCC(=O)NCC(=O)O [VIB_P09, D{D-ASP}SDVWWGG] (H-D[dD]SDVWWGG-OH; N-terminus and C-terminus assumed) yielded a Kd [1] of 11 µM.

For DD[dS]DVWWGG (Printed as DD{D-SER}DVWWGG) [VIB_P10], the Kd [4] was 8.47 µM.

DASDVWWGG [VIB_P01] showed a Kd [4] of 12.2 µM.

DDSAVWWGG [VIB_P03] showed a Kd [4] of 10 µM.

AASDVWWGG [VIB_P19] gave a Kd [4] of 18.1 µM.

For DASAVWWGG [VIB_P04], the Kd [4] was 5.85 µM.

DDADVWWGG [VIB_P02] gave a Kd [4] of 3.68 µM.

Work on ADSDVWWGG [VIB_P12] yielded a Kd [4] of 7.58 µM.

For [dD]DSDVWWGG [VIB_P08], the Kd [4] was 6.45 µM.

B1: VIB_P33 (peptide)
peptide: DVWWG
notes: also called DVWWG 5-mer; wild-type 5-mer
B1 was tested, and the Kd [4] was 9.09 µM, the Kd [5] was 9.09 µM and the “% inhibition 50 µM” value [6] was 66%.

Work on DDSDVWW [VIB_P06] yielded a Kd [4] of 25.8 µM.

With DDS[dD]VWWGG (Printed as DDS{D-ASP}VWWGG) [VIB_P11] the Kd [4] was 6.21 µM.
